Entries after “also recorded” stand apart in the source; their conditions may differ. Where two headings read alike, the source gives them in different places.
Columns and labels:
mutated β/A4 (1-28) = biological target: T1, mutated β/A4 (1-28) (Homo sapiens, UniProt P05067, H684G/H685G/K687G); test: Affinity column with β/A4 (1-28) mutated in the putative heparin binding domain; conditions: histidine, histidine and lysine changed to glycine; versus normal β/A4 (1-28) column
T1 construct: residues 1-28 of BAP or residues 597-624 of BAPP
Description: As described above, residues 12-17 of the β/A4 (-valine-histidine-histidine-glutamine-lysine-leucine-) conform to a consensus sequence for a potential heparin/heparan sulfate binding domain. This has been recently confirmed by our studies, whereby comparisons were made using column affinity chromatography. One affinity column contained β/A4 (1-28), whereas the other affinity column contained β/A4 (1-28) with three amino acid substitutions of the putative heparin binding domain (i.e. the basic amino acids histidine, histidine and lysine where changed to glycine, and therefore were now uncharged instead of basic amino acids). ^125I-HSPG bound with high affinity to normal β/A4 (1-28) affinity column, whereas a 50-60% decrease in HSPG binding to the mutated β/A4 (1-28) was observed.

[1] = biological target: T2, Beta-Amyloid Protein (1-28) (Homo sapiens, UniProt P05067); test: Competitive inhibition of 125I-labeled HSPG binding to BAP (1-28) affinity column; conditions: absence of unlabeled competing ligand, n=5
T2 construct: residues 1-28 of BAP or residues 597-624 of BAPP; purchased Bachem Inc., Torrance, Calif; host or cells: synthetic peptide
Experimental: ^125I-labeled HSPGs in the presence of increasing concentrations of unlabeled GAGs, or large low density HSPG (from EHS sarcoma) were applied to an Affi-gel 10 column containing BAP (residues 1-28). After nonbound PGs were eluted from the column using TBS+0.1% TX-100, bound PGs were eluted with a step gradient using 15 ml of 1M MgCl2 in TBS+0.1% TX-100, followed by 15 ml of 4M MgCl2 in TBS+0.1% TX-100, and then 10 ml of 8M urea buffer containing 3M NaCl. […] Bars indicate standard error of the mean.
In order to test the specificity of HSPG binding to BAP (1-28), competitive inhibition experiments were also performed. 125-I labeled HSPGs (100,000-200,000 dpm) were mixed with (a) HSPG from EHS sarcoma (Mr approximately 700,000) (Kato et al., 1988) (gift of Dr. Koji Kimata, Aichi, Japan), (b) heparin from porcine intestinal mucosa (Mr˜11,000; Sigma, St. Louis, Mo.), (c) chondroitin-6-sulfate from shark cartilage (Mr˜59,000; Sigma, St. Louis, Mo.), or (d) […] dextran sulfate (Mr˜110,000; Pharmacia Fine Chemicals, Uppsala, Sweden). The samples were incubated on a rotator for 2 hours at room temperature and then applied to the BAP (1-28) column. Columns were run and eluted with step gradients (1 to 4 M MgCl2) as described above.
Purified iodinated HSPGs were combined with various concentrations of unlabeled competing ligands and applied to a BAP (1-28) affinity column (FIG. 10).

BAP (residues 1-28) = biological target: T3, BAP (residues 1-28) (Homo sapiens, UniProt P05067); test: Affinity column chromatography of labeled proteoglycans on BAP (1-28) Affi-gel 10 column; type: binding
T3 construct: residues 1-28 of BAP or residues 597-624 of BAPP; purchased Bachem Inc., Torrance, Calif; host or cells: synthetic peptide
Experimental: Approximately 500,000 dpm of ^35S-sulfate labeled PGs isolated from the culture media of ECs were applied to Affi-gel 10 affinity columns containing approximately 0.45 mg of 1) residues 1-28 of BAP, 2) residues 410-429, a region of BAPP present in the extracellular domain, or 3) bovine serum albumin. The labeled PGs were left on the column for 1 hour, after which non-bound radiolabelled PGs were eluted with 25 ml (50 0.5 ml fractions) of TBS+0.1% TX-100 and collected on a fraction collector. Bound PGs were then eluted from the column with 15 mls of 4M MgCl2 in TBS+0.1% TX-100.
0.5 mg or 1.0 mg of ligands consisting of 1) BAP (1-28) (Bachem Inc., Torrance, Calif.), 2) a peptide corresponding to residues 410-429 of the BAPP (gift of Dr. Dennis Selkoe, Boston, U.S.A.) or 3) bovine serum albumin (BSA fraction V, Boehringer, Mannheim Biochemical) were dissolved initially in 400 μl of double distilled water to which was added an equal volume of 0.2 M HEPES buffer (pH 7.5) containing 160 mM calcium chloride. The ligand solutions were added to 0.8-1.0 ml of Affi-gel 10 (Biorad, Richmond, Calif.) and coupling was allowed to proceed for 4 hours at 4° C., after which 1/10 volume of IM ethanolamine (pH 8.0) was added and incubation continued for an additional 1-2 hours to block remaining unreacted ester groups. Gel coupled ligand was then transferred to Biorad Econo-columns and washed with TBS in 0.1% Triton-X 100. To assess the amount of bound ligand, soluble (nonbound) protein remaining in the wash buffer was assayed. The affinity columns coupled approximately 90% of ligand initially applied (i.e. 0.45 mg or 0.90 mg).
^35S-sulfate labeled PGs isolated from the culture media (360,000 dpm) of ECs and SMCs were applied to Affi-gel 10 columns containing 1) BAP (residues 1-28), 2) BAPP (residues 410-429) or 3) Bovine serum albumin. The labeled PGs were allowed to interact with the affinity gel for 1 hour (preliminary experiments indicated maximum binding efficiency at 1 hour) and non-bound radiolabelled PGs were eluted with 25 ml of TBS+0.1% Triton X-100 (TBS-TX 100). Bound PGs were eluted with either a single-step gradient using 15 mls of 4M MgCl2 in TBS-TX 100 or a linear gradient of 0 to 4M MgCl2 in TBS-TX 100. In some experiments, columns were further eluted with 15 ml of 8M urea in 50 mM Tris-HCl (pH 7.5), with 0.5% Triton X-100 and 3M NaCl. The radioactivity per fraction was determined by scintillation counting. Most experiments were repeated a minimum of three times. Recoveries of applied radioactivity from the affinity columns ranged from 80-95%.

In the case of “high Mr HSPG: ˜600-800 kDa heparan sulfate proteoglycan isolated from culture media of bovine aortic endothelial cells”, the “decrease in HSPG binding to mutated β/A4 (1-28)” value (mutated β/A4 (1-28)) is reported as 50-60%, the “applied 125I-HSPG bound to the BAP column” value [1] is reported as 21.6±4.4% and the “binding to BAP (1-28) affinity column” value (BAP (residues 1-28)) is reported as “strong binding; also recorded: bound tightly”. The “eluent that removed most bound PGs from BAP column” value (BAP (residues 1-28); after 0 to 4M MgCl2 gradient and 4M MgCl2 wash) was 8M urea+3M NaCl and the “binding to BAP (1-28) affinity column” value (BAP (residues 1-28); listed as 125I-HSPG) was “high affinity”.

From patent US6340783B1, “Rodent models of human amyloidoses” (University of Washington, priority 1992, dated 2002)
